Kd and fold stronger binding affinity against the natural SynP130-140 data for 3 molecules are collected here from patent US20230242601A1, “PEPTIDE USED TO PREVENT OR TREAT SYNUCLEINOPATHY” (TOHOKU UNIVERSITY, priority 2020, published 2023).

The target in this assay is FABP3 fused with a His-tag at the N-terminus. The experiment in a line: QCM, peptide added to immobilised FABP3.
FABP3 fused with a His-tag at the N-terminus, sequence (P05413 2-133): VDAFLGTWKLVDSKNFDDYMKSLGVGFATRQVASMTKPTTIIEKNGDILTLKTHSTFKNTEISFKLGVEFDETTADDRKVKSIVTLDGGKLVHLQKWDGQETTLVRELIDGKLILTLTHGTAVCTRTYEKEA

B1: SynP130-140 peptide (peptide)
peptide: EEGYQDYEPEA
As to B1, the equilibrium dissociation constant (Kd) – broadly, the concentration at which binding is half-saturated – was determined as 0.2 nM.

B2: SynP130-140 Y133F/Y136F (peptide)
peptide: EEGFQDFEPEA
B2 showed a fold stronger binding affinity against the natural SynP130-140 of 2 fold.

B3: SynP130-140 Y133F (peptide)
peptide: EEGFQDYEPEA
The molecule B3 yielded a Kd of 0.1 nM and a fold stronger binding affinity against the natural SynP130-140 of 2 fold.
